Measurements taken from patent publication US20210292396A1.

Key:
Assay in all cases: cell-based or functional assay
[1] = target: Env of HIV isolate 0439.v5.c1 (clade A) (HIV)
[2] = target: Env of HIV isolate 0815.v3.c3 (clade ACD) (HIV)
[3] = target: Env of HIV isolate 25710-2.43 (clade C) (HIV)
[4] = target: Env of HIV isolate 263-8 (clade AG) (HIV)
[5] = target: Env of HIV isolate 3016.v5.c45 (clade D) (HIV)
[6] = target: Env of HIV isolate 398-F1.F6.20 (clade A) (HIV)
[7] = target: Env of HIV isolate 6471.v1.c16 (clade C) (HIV)
[8] = target: Env of HIV isolate BR025.9 (clade C) (HIV)
[9] = target: Env of HIV isolate BR07.DG (clade B) (HIV)
[10] = target: Env of HIV isolate BS208.B1 (clade A) (HIV)
[11] = target: Env of HIV isolate CAAN.A2 (clade B) (HIV)
[12] = target: Env of HIV isolate CAP244.D3 (clade C) (HIV)
[13] = target: Env of HIV isolate CH181.12 (clade BC) (HIV)
[14] = target: Env of HIV isolate CM244.ec1 (clade AE) (HIV)
[15] = target: Env of HIV isolate CNE53 (clade C in Table 7) (HIV)
[16] = target: Env of HIV isolate CNE57 (clade B) (HIV)
[17] = target: Env of HIV isolate CNE59 (clade AE) (HIV)
[18] = target: Env of HIV isolate DU422.01 (clade C) (HIV)
[19] = target: Env of HIV isolate Q168.a2 (clade AD) (HIV)
[20] = target: Env of HIV isolate QH209.14M.A2 (clade A) (HIV)
[21] = target: Env of HIV isolate RHPA.7 (clade B) (HIV)
[22] = target: Env of HIV isolate THRO.18 (clade B) (HIV)
[23] = target: Env of HIV isolate TRO.11 (clade B) (HIV)
[24] = target: Envelope of SVA.MLV
[25] = target: HIV Env of isolate 0260.v5.c36 (HIV)
[26] = target: HIV Env of isolate 25710-2.43 (HIV)
[27] = target: HIV Env of isolate 286.36 (HIV)
[28] = target: HIV Env of isolate 3168.v4.c10 (HIV)
[29] = target: HIV Env of isolate 3326.v4.c3 (HIV)
[30] = target: HIV Env of isolate 3337.v2.c6 (HIV)
[31] = target: HIV Env of isolate 57128.vrc15 (HIV)
[32] = target: HIV Env of isolate 6101.10 (HIV)
[33] = target: HIV Env of isolate 89.6.DG (HIV)
[34] = target: HIV Env of isolate BI369.9A (HIV)
[35] = target: HIV Env of isolate BJOX010000.06.2 (HIV)
[36] = target: HIV Env of isolate BaL.26 (HIV)
[37] = target: HIV Env of isolate C3347.c11 (HIV)
[38] = target: HIV Env of isolate CAP244.D3 (HIV)
[39] = target: HIV Env of isolate CAP45.G3 (HIV)
[40] = target: HIV Env of isolate CNE5 (HIV)
[41] = target: HIV Env of isolate CNE57 (HIV)
[42] = target: HIV Env of isolate HO86.8 (HIV)
[43] = target: HIV Env of isolate M02138 (HIV)
[44] = target: HIV Env of isolate MB539.2B7 (HIV)
[45] = target: HIV Env of isolate MN.3 (HIV)
[46] = target: HIV Env of isolate Q23.17 (HIV)
[47] = target: HIV Env of isolate Q461.e2 (HIV)
[48] = target: HIV Env of isolate SC422.8 (HIV)
[49] = target: HIV Env of isolate T257-31 (HIV)
[50] = target: HIV Env of isolate TZBD.02 (HIV)
[51] = target: HIV Env of isolate X1193.c1 (HIV)
[52] = target: HIV Env of isolate X1632.S2.B10 (HIV)
[53] = target: HIV Env of isolate X2278.C2.B6 (HIV)

PGT121 (antibody)
IC50, pseudovirus neutralization [1]: > 50 µg/mL | IC50, pseudovirus neutralization [2]: 0.0323 µg/mL | IC50, pseudovirus neutralization [3]: 0.0227 µg/mL | IC50, pseudovirus neutralization [4]: 0.484 µg/mL | IC50, pseudovirus neutralization [5]: > 50 µg/mL | IC50, pseudovirus neutralization [6]: 0.0223 µg/mL | IC50, pseudovirus neutralization [7]: > 50 µg/mL | IC50, pseudovirus neutralization [8]: 9.67 ng/mL | IC50, pseudovirus neutralization [9]: 0.132 µg/mL | IC50, pseudovirus neutralization [10]: > 50 µg/mL | IC50, pseudovirus neutralization [11]: 0.0193 µg/mL | IC50, pseudovirus neutralization [12]: > 50 µg/mL | IC50, pseudovirus neutralization [13]: 0.0313 µg/mL | IC50, pseudovirus neutralization [14]: > 50 µg/mL | IC50, pseudovirus neutralization [15]: 0.0263 µg/mL | IC50, pseudovirus neutralization [16]: 0.0283 µg/mL | IC50, pseudovirus neutralization [17]: > 50 µg/mL | IC50, pseudovirus neutralization [18]: 0.062 µg/mL | IC50, pseudovirus neutralization [19]: > 50 µg/mL | IC50, pseudovirus neutralization [20]: > 50 µg/mL | IC50, pseudovirus neutralization [21]: 0.0357 µg/mL | IC50, pseudovirus neutralization [22]: > 50 µg/mL | IC50, pseudovirus neutralization [23]: 0.0203 µg/mL | IC80, pseudovirus neutralization [24]: > 50 µg/mL | IC80 [25]: 0.159 µg/mL | IC80, pseudovirus neutralization [26]: 0.066 µg/mL | IC80, pseudovirus neutralization [27]: 0.027 µg/mL | IC80, pseudovirus neutralization [28]: 1.43 µg/mL | IC80, pseudovirus neutralization [29]: > 50 µg/mL | IC80, pseudovirus neutralization [30]: > 50 µg/mL | IC80, pseudovirus neutralization [31]: > 50 µg/mL | IC80 [32]: 0.0353 µg/mL | IC80 [33]: 0.0783 µg/mL | IC80 [34]: 0.085 µg/mL | IC80 [35]: > 50 µg/mL | IC80 [36]: 0.06 µg/mL | IC80 [37]: > 50 µg/mL | IC80, pseudovirus neutralization [38]: > 50 µg/mL | IC80, pseudovirus neutralization [39]: > 50 µg/mL | IC80 [40]: > 50 µg/mL | IC80 [41]: 0.0777 µg/mL | IC80 [42]: > 50 µg/mL | IC80 [43]: > 50 µg/mL | IC80 [44]: > 50 µg/mL | IC80 [45]: > 50 µg/mL | IC80 [46]: 0.0267 µg/mL | IC80 [47]: > 50 µg/mL | IC80 [48]: 0.3 µg/mL | IC80 [49]: > 50 µg/mL | IC80, pseudovirus neutralization [50]: 0.137 µg/mL | IC80, pseudovirus neutralization [51]: 0.147 µg/mL | IC80, pseudovirus neutralization [52]: > 50 µg/mL | IC80 [53]: 0.072 µg/mL
